Experimental data published in patent US20220396632A1 (VERSEAU THERAPEUTICS, published 2022).
Non-standard residues stand in square brackets, D forms with d. No end group written: not given here. *: point of attachment. Biotin = O=C1N[C@H]2[C@H](CS[C@H]2CCCCC(=O)*)N1; sY = N[C@@H](Cc1ccc(OS(=O)(=O)O)cc1)C(=O)O

T1: Biotin PSGL-1(42-62) peptide, unmodified (human, C-terminal Lys-biotin)
T1 construct: Residues 42-62 followed by GGGK-biotin; also called WT; wild-type
T1 peptide: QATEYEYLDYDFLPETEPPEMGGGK

T2: Scrambled Y42,52,63(SO3) PSGL-1(42-62) biotin peptide (sulfotyrosine at peptide positions 1, 11 and 22; C-terminal Lys-biotin)
T2 peptide: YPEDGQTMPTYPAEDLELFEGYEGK

T3: Biotin Y46,48,51(SO3) PSGL-1(42-62) peptide (human, sulfotyrosine at Y46, Y48 and Y51; C-terminal Lys-biotin)
T3 construct: also called fully sulfated N-terminal PSGL-1 peptide
T3 peptide: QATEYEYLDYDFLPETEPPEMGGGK

T4: SulfoTyr C4 peptide (not fully specified; Y4, Y7 and Y9 sulfated (SO3); C-terminal biotin)
T4 construct: also called C4 alpha chain peptide; human sulfotyrosinylated C4 peptide
T4 peptide: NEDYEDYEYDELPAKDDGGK

T5: Human fibrinogen protein (ThermoFisher, RP-43142) (human, UniProt P02671 20-629; P02675 31-491; P02679 27-453, limits assumed, natural sulfotyrosines)
T5 construct: mature; Native dimer with 3 pairs of non-identical chains; also called gamma-fibrinogen; γ fibrinogen protein
T5 sequence (looked up) 1: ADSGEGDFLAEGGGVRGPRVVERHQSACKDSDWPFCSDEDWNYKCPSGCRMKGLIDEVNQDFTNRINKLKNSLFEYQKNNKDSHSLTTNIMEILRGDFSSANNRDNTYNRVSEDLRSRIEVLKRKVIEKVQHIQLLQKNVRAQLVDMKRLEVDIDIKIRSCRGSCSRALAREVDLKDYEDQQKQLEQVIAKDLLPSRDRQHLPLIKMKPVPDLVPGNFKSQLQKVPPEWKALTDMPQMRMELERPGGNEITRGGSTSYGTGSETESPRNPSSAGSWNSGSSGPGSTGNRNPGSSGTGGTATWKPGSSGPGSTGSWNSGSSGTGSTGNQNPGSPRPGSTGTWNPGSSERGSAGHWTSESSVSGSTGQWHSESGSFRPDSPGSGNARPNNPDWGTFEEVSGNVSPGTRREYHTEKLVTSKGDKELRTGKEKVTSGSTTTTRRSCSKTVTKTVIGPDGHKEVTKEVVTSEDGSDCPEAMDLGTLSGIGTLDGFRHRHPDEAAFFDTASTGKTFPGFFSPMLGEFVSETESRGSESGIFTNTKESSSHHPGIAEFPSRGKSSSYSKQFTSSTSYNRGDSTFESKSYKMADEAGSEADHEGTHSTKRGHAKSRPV
T5 sequence (looked up) 2: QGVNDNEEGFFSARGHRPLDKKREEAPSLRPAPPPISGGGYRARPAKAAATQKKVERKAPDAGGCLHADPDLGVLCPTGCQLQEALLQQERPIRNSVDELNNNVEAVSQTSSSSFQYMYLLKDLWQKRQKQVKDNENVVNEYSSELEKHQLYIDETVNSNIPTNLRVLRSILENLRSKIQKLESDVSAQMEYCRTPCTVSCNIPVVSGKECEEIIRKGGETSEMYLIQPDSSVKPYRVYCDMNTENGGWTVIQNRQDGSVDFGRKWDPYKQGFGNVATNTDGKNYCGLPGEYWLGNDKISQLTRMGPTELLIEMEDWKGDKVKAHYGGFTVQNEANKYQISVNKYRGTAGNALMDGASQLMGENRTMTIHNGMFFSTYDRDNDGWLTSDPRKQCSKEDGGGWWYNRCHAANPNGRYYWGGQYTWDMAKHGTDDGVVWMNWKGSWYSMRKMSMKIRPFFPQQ
T5 sequence (looked up) 3: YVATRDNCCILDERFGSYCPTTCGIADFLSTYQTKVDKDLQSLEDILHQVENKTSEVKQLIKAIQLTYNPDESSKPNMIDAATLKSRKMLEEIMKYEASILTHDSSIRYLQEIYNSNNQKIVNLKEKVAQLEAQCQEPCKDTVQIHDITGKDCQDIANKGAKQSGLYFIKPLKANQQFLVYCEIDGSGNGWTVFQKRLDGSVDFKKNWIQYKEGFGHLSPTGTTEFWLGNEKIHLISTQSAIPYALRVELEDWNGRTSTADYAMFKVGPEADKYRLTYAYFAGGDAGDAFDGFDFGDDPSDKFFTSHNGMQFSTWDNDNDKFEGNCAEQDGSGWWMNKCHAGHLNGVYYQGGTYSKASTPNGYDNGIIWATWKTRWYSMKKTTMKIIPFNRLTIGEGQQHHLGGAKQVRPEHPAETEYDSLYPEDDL

T6: Sulfotyrosine CCR2b biotin peptide (human)
T6 construct: also called CCR2b peptide
T6 peptide: TTFFD[sY]D[sY]GAPSHGGK(Biotin)

T7: Sulfotyr fibrinogen γ peptide (not fully specified; Y8 and Y12 sulfated (SO3); C-terminal biotin)
T7 construct: also called Fibrinogen gamma peptide; human sulfotyrosinylated fibrinogen peptide
T7 peptide: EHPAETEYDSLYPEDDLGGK

T8: SulfoCCK biotin peptide (human)
T8 construct: also called sulfotyrosine CCK peptide
T8 peptide: SHRISDRD[sY]MGWMDFGGK(Biotin)

T9: Sulfotyrosine D6 biotin peptide (human)
T9 construct: also called D6 peptide
T9 peptide: ENSSFY[sY][sY]D[sY]LDEVAFGGK(Biotin)


Key:
[1] = molecular target: T1, Biotin PSGL-1(42-62) peptide, unmodified; test: ELISA, immobilized biotin peptide
Method in brief: (§1)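 In this ELISA, half-well high binding plates (Corning Cat. #3690) received 3 ug/mL/25 ul per well of biotin-tagged PSGL-1 peptides covering residues 42 to 62, diluted in PBS, pH 7.4, and coated overnight at 4° C. Duplicate readings for each antibody were averaged and the average assay background was subtracted. PSGL-1 protein or peptide was the positive control.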

[2] = molecular target: T2, Scrambled Y42,52,63(SO3) PSGL-1(42-62) …; test: ELISA, immobilized biotin peptide
Method in brief: as §1

[3] = molecular target: T3, Biotin Y46,48,51(SO3) PSGL-1(42-62) …; test: ELISA, immobilized biotin peptide
Method in brief: as §1

[4] = molecular target: T10, Cynomolgus PSGL-1(ECD)-hFc1 (cynomolgus macaque); test: ELISA, plate cyno PSGL-1(ECD)-Fc
T10 construct: also called Cyno PSGL1-Fc; Cyno PSGL-1(ECD)-Fc
Description: Antibody binding to plate-immobilized cyno PSGL-1(ECD) was determined either at one concentration (20 nM) or by generating full antibody binding curves (0.003-200 nM). A typical ELISA was performed by overnight coating at 4° C. with 3 ug/mL/25 ul per well of recombinant cyno PSGL-1(ECD) protein in PBS, pH 7.4, in high binding half-well plates (Corning Cat. #3690). […] Anti-PSGL-1 IgG in assay buffer (blocking buffer containing 0.05% tween 20) was added into test and control wells (20 nM/25 ul/well) and the plate incubated for 45 min at 37° C. […] The plate was incubated for 45 min at 37° C., and mAb bound to plate-immobilized target determined at A450 nm using HRP substrate (3,3′,5,5′-tetramethylbenzidine (TMB)). For each antibody, duplicate values were averaged and assay background subtracted.

SulfoTyr C4 peptide = molecular target: T4, SulfoTyr C4 peptide; test: ELISA, 50 nM mAb
Description: (§2) Recombinant PSGL-1-hFc1 chimera protein consisting of PSGL-1's extracellular domain (ECD) served as a positive control. […] Primary antibody was added (25 ul per well) in duplicate at 50 nM in assay buffer (blocking buffer containing 0.05% Tween®20) into test and control (just blocked) wells and the plate incubated for 45 min at 37° C.

[5] = molecular target: T5, Human fibrinogen protein (ThermoFisher, …); test: ELISA, 50 nM mAb
Description: as §2

[6] = molecular target: T6, Sulfotyrosine CCR2b biotin peptide; test: ELISA, 50 nM mAb
Description: as §2

[7] = molecular target: T7, Sulfotyr fibrinogen γ peptide; test: ELISA, 50 nM mAb
Description: as §2

[8] = molecular target: T11, Human complement C4 protein (Millipore Sigma, Cat. 204886) (human, UniProt P0C0L4 20-675; P0C0L4 680-1446; P0C0L4 1454-1744, limits assumed, natural sulfotyrosines); test: ELISA, 50 nM mAb
T11 construct: mature
T11 sequence (P0C0L4 20-675 limits assumed, form in doubt, chain 1 of 3): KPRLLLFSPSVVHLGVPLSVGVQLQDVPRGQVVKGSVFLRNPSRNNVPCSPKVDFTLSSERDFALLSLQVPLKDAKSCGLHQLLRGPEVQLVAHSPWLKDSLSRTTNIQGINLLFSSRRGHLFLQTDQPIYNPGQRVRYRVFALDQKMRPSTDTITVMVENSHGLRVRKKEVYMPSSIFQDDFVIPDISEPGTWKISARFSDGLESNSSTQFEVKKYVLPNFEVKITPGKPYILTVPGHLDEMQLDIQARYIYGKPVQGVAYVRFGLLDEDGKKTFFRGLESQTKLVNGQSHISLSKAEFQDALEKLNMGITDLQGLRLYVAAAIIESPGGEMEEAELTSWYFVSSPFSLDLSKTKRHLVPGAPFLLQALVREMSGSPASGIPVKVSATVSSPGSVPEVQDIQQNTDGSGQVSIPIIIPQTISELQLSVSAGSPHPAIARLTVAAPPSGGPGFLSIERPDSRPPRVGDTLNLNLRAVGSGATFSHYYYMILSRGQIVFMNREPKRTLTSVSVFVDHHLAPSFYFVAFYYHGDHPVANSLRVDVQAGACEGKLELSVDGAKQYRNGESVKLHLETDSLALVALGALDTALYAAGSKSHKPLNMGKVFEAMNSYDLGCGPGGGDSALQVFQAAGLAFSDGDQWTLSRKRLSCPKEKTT
T11 sequence (P0C0L4 680-1446 limits assumed, form in doubt, chain 2 of 3): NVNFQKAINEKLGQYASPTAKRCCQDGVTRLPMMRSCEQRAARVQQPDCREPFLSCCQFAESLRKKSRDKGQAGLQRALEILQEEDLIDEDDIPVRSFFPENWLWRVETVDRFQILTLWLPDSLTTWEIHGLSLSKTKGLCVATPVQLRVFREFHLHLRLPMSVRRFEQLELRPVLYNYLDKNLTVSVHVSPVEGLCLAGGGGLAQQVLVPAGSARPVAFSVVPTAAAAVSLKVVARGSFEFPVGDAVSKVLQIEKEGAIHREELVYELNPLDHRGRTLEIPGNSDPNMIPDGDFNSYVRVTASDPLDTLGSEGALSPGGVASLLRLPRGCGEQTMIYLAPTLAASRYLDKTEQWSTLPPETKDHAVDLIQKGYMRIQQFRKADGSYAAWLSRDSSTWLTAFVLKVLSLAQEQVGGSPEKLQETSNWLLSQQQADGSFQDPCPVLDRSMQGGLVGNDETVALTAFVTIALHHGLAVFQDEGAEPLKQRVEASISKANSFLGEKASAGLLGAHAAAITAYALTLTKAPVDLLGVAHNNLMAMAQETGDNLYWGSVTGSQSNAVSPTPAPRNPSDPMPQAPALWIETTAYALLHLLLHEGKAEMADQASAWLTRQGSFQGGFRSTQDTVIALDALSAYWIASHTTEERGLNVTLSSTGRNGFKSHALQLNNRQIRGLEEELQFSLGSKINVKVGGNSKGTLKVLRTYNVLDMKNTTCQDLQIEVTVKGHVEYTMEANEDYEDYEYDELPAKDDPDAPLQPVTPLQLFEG
T11 sequence (P0C0L4 1454-1744 limits assumed, form in doubt, chain 3 of 3): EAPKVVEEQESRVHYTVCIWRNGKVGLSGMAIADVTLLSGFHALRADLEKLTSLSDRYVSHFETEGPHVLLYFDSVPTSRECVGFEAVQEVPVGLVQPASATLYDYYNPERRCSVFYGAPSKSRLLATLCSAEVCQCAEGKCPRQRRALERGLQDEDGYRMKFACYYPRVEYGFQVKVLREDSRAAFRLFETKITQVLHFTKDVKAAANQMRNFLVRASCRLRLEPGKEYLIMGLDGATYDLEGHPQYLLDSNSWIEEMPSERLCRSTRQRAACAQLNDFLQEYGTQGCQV
Description: as §2

SulfoCCK biotin peptide = molecular target: T8, SulfoCCK biotin peptide; test: ELISA, 50 nM mAb
Description: as §2

[9] = molecular target: T9, Sulfotyrosine D6 biotin peptide; test: ELISA, 50 nM mAb
Description: as §2

Row | Binder | EC50 [1] | A450nm, 20 nM mAb [2] | binding result [2] | A450nm, 20 nM mAb [3] | EC50 [3] | binding result [4] | binding normalized to PSGL-1 (SulfoTyr C4 peptide) | binding normalized to PSGL-1 [5] | binding normalized to PSGL-1 [6] | binding normalized to PSGL-1 [7] | binding normalized to PSGL-1 [8] | binding normalized to PSGL-1 (SulfoCCK biotin peptide) | A450nm, 20 nM mAb [1] | binding normalized to PSGL-1 [9]
1 | 02H08 (antibody, IgG4, V domains shown) VH: not shown VL: QSVLTQPPSVSAAPGQKVTISCSGSYFNIGNHYVSWYHQLPGTAPKLLIYDNNLRPSGIPDRFSASKSGTSATLGITGLQTGDEGDYYCGTWDSSLSGRVFGGGTKLTVL | > 500 nM | 0.03 A450nm | no binding (tested: 20 nM) | 2.45 A450nm | 1.6 nM | no binding (tested: 20 nM) | 1.34 | 0.11 | 1.32 | 1.34 | 0.94 | 1.27 | – | –
2 | 02G01 (antibody, IgG4, V domains shown) VH: EVQLVQSGAEVKKPGASVKVSCKASGYTFTSYGISWVRQAPGQGLEWMGWISAYNGNTNYAQKLQGRVTMTTDTSTSTAYMELRSLRSDDTAVYYCARVTRLPGGGYAFDIWGQGTMVTVSL VL: QSVLTQPPSASGTPGQRITISCSGSTSNIGNKHVYWYQQFPGAAPKLLIHNTNKRPSGVPDRFSGSKSGTSASLAISGLQSDDEADYYCAAWDGSLSAWVFGGGTKLTVL | 3.8 nM | – | no binding (tested: 20 nM) | 2.72 A450nm | 0.03 nM | no binding (tested: 20 nM) | 0.94 | 0.07 | 0.78 | 0.97 | 0.58 | 1.1 | – | 0.69

More lines, now with the values ahead:

Row | EC50 [1] | A450nm, 20 nM mAb [2] | binding result [2] | A450nm, 20 nM mAb [3] | EC50 [3] | binding result [4] | binding normalized to PSGL-1 (SulfoTyr C4 peptide) | binding normalized to PSGL-1 [5] | binding normalized to PSGL-1 [6] | binding normalized to PSGL-1 [7] | binding normalized to PSGL-1 [8] | binding normalized to PSGL-1 (SulfoCCK biotin peptide) | A450nm, 20 nM mAb [1] | binding normalized to PSGL-1 [9] | Binder
3 | ~500 nM | 0.04 A450nm | no binding (tested: 20 nM) | 2.62 A450nm | 0.04 nM | no binding (tested: 20 nM) | 1.15 | 0.11 | 1.1 | 1.23 | 1.1 | 1.14 | – | – | 03B01 (antibody, IgG4, V domains shown) VH: QMQLVQSGAEVKKPGASVKVSCRASGYRFSTYAISWVRQAPGQGLEWIGWISTHHGNTKYAQKFQDRVTMTADASTSIAYMELRSLRSDDTAVYYCAAAIGNYWGQGTLVTVSS VL: EIVLTQSPAILSVSPGERASLSCRASQSVSSKLAWYQQKPGQAPRLLIYGASTRATGIPPRFSGSGSGTDFTLTISSLEPEDFAVYYCQQRSNWPLTFGGGTKVEIK
4 | – | – | no binding (tested: 20 nM) | 2.44 A450nm | – | no binding (tested: 20 nM) | 1.15 | 0.53 | 1.09 | 1.22 | 1.13 | 1.17 | 0.17 A450nm | 1.22 | 05A07 (antibody, IgG4, V domains shown) VH: QVQLVQSGSEVKRPGASVKVSCKTSGYTFSNYGIAWVRQAPGQGLEWVGWVSAYNGKTGASQKLQGRVTMTTDRSTTTAYLELRSLQSDDTAVYYCARGVKGGLTGYARDYWGQGTLVIVSS VL: DIVLTQSPRSLPVTLGQPASISCRSSQSLVNRAGDTYLNWFQQRPGQSPRRLIYKVSNRDSGVPDRFSGSGSGTDFTLKISRVEAEDVGVYYCMQGTQWPYTFGQGTKLEIK
5 | – | – | no binding (tested: 20 nM) | 2.57 A450nm | – | no binding (tested: 20 nM) | 0.97 | 0.03 | 0.61 | 1.22 | 1.09 | 0.78 | 0.37 A450nm | – | 06B02 (antibody, IgG4, V domains shown) VH: QVQLVESGPGLVKPSETLSLTCTVSGVSVSSYYWTWVRQSPGKGLEWIGHVHHSGISNYNPSLKSRVVMSVDTSKNYFSLKLRSVTAADTAVYYCARGGPRISPTNWGQGTLVTVSS VL: QPVLTQPPSVSKALRQTATLTCTGNSNNVGYQGATWLRQHQGHPPRLLSYRNNNRPSGISERFSASRSGNTATLTITGLQPDDEADYYCAAWDSSLSAWVFGGGTKLTVL
